Here are results for 2 molecules from patent US20140120555A1 (PIERRE FABRE MEDICAMENT, published 2014).

Positions count from the first letter of the chain named. Names and notes keep the numbering of the source.

Experiment [1] deals with T1, Recombinant human FcγRI [CD64], Gln16-Pro288 with C-terminal 6-His tag (human, UniProt P12314 16-288).
T1 construct: range 16-288; Soluble form bought from R&D Systems; also called h-FcγRI
Put plainly: SPR (Biacore X), Mab amine-coupled on CM4 chip, h-FcγRI as analyte, Langmuïr model. On the technique in general: SPR reads the build-up and loss of mass on a sensor chip optically.

Experiment [2] deals with T2, Recombinant mouse FcγRI [CD64], Gln25-Pro297 with C-terminal 6-His tag (mouse, UniProt P26151 25-297).
T2 construct: range 25-297; Soluble form bought from R&D Systems; also called m-FcγRI
T2 sequence: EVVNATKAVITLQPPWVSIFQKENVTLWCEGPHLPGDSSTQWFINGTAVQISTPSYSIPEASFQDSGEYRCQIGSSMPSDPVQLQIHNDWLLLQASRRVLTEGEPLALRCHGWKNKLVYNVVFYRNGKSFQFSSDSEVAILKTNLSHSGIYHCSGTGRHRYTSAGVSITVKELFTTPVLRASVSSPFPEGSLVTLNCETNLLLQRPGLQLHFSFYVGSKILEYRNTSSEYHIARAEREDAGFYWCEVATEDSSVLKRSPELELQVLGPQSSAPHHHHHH
Put plainly: SPR (Biacore X), steady-state analysis, response at end of association versus m-FcγRI concentration.

Experiment [3] has as its target T3, Recombinant human FcγRIIIA variant V [CD16a], Gln17-Gln208 with C-terminal 6-His tag (human, UniProt P08637 17-208).
T3 construct: range 17-208; 'variant V' is given without a position, so no substitution is written; also called h-FcγRIIIA
Put plainly: SPR (Biacore X), Mab on CM4 chip, h-FcγRIIIA as analyte, heterogeneous ligand model, major component.

The target in experiment [4] is T3, Recombinant human FcγRIIIA variant V …. Put plainly: SPR (Biacore X), Mab on CM4 chip, h-FcγRIIIA as analyte, heterogeneous ligand model, minor component.
The target is the same in experiment [5]. The experiment is described as follows: SPR (Biacore X), steady-state analysis, response at end of association versus h-FcγRIIIA concentration.
Experiment [6] shares this target. The experiment is described as follows: SPR (Biacore X): h-FcγRIIIA injected over c515H7 Mab immobilized on a CM4 sensorchip; Langmuir model. How it is done: 2017 RU of c515H7 Mab were immobilized using the amine coupling kit chemistry on the second flowcell (FC2) of a CM4 sensorchip. The first flowcell (FC1) activated by NHS and EDC mixture and des-activated by ethanolamine served as the reference surface to check and subtract the non specific interaction between the analyte (Fc gamma receptors) and the sensorchip matrix.
(§1) The kinetic experiments were carried out at 25° Celsius at a flow rate of 30 μl/min. The HBS-EP buffer was used either as the running buffer or for the preparation of analyte solutions. The analyte solutions were injected during 90 seconds (association phase) with a 90 seconds delay (dissociation phase). An injection of running buffer as analyte was used as a double reference. All the sensorgrams were corrected by this double reference sensorgram.
After each injection of the analyte, the sensorchip was regenerated by injection of 20 mM NaOH, 75 mM NaCl solution.

Experiment [7] has as its target T4, Recombinant mouse FcγRIII [CD16], Ala31-Thr215 with C-terminal 10-His tag (mouse, UniProt P08508 31-215).
T4 construct: Soluble form bought from R&D Systems; also called m-FcγRIII
T4 sequence: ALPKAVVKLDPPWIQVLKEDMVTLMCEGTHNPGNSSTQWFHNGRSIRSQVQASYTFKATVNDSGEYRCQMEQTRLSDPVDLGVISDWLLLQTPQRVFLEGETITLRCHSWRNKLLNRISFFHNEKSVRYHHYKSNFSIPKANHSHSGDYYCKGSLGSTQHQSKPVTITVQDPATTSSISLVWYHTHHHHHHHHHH
The experiment is described as follows: SPR (Biacore X), Mab on CM4 chip, m-FcγRIII as analyte, Langmuïr model; lower of the two Langmuïr-fit values. How it is done: (§2) 1964 RU of hz515H7VH1D76NVL2 Mab were immobilized using the amine coupling kit chemistry on the second flowcell (FC2) of a CM4 sensorchip. The first flowcell (FC1) activated by NHS and EDC mixture and des-activated by ethanolamine served as the reference surface to check and subtract the non specific interaction between the analyte (Fc gamma receptors) and the sensorchip matrix.
as §1
Using the Langmuïr model the constant of dissociation was around 17 and 18 nM.

Experiment [8] deals with T1, Recombinant human FcγRI [CD64], …. The experiment is described as follows: SPR (Biacore X): h-FcγRI injected over hz515H7VH1D76NVL2 Mab immobilized on a CM4 sensorchip; heterogeneous ligand model, minor component (1%). How it is done: The experiments were carried out using a Biacore X device. The soluble forms of the four Fc […]gamma receptors used in this study were purchased from R&D Systems: […]

Experiment [9] deals with T3, Recombinant human FcγRIIIA variant V …. The experiment is described as follows: SPR (Biacore X): h-FcγRIIIA injected over hz515H7VH1D76NVL2 Mab immobilized on a CM4 sensorchip; heterogeneous ligand model, major component (79%). The method, then: as §2, §1
(§3) Sensorgrams obtained with h-FcγRIIIA [FIG. 16] were clearly not fitted by the Langmuïr model (Chi2/Rmax>20%). […] According to this model, the hz515H7VH1D76NVL2 Mab Fc domain may be regarded as a mixture of two components. […] According to the literature, the heterogeneity observed with h-FcγRIIIA was probably linked to the glycosylation heterogeneity on the Mab Fc domain.

Experiment [10] shares this target. The experiment is described as follows: SPR (Biacore X): h-FcγRIIIA injected over hz515H7VH1D76NVL2 Mab immobilized on a CM4 sensorchip; heterogeneous ligand model, minor component (21%). How it is done:
as §2, §1, §3

T1 sequence (P12314 other isoform, or with tags, fused parts or gaps limits assumed): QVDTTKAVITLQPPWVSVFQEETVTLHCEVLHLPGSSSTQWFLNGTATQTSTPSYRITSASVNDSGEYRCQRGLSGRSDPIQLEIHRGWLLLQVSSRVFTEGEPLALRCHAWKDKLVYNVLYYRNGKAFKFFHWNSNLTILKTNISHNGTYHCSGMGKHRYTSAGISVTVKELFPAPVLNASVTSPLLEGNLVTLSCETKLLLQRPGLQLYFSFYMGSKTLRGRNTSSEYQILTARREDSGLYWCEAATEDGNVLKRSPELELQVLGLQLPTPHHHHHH
T3 sequence (P08637 other isoform, or with tags, fused parts or gaps mutant limits assumed, form in doubt): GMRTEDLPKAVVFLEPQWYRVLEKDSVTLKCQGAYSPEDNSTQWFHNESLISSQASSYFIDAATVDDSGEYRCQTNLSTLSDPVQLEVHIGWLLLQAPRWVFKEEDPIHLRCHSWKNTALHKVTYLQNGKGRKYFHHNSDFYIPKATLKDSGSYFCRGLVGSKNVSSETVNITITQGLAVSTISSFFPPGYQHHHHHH

B1: chimeric antibody c515H7 (antibody, human IgG1, kappa)
heavy: not shown
light: DIVMSQSPSSLAVSAGEKVTMSCKSSQSLFNSRTRKNYLAWYQQKPGQSPKLLIYWASARDSGVPARFTGSGSETYFTLTISRVQAEDLAVYYCMQSFNLRTFGGGTKLEIKRTVAAPSVFIFPPSDEQLKSGTASVVCLLNNFYPREAKVQWKVDNALQSGNSQESVTEQDSKDSTYSLSSTLTLSKADYEKHKVYACEVTHQGLSSPVTKSFNRGEC
notes: Human IgG1/kappa constant domains; also called c515H7 Mab; chimeric 515H7
By Kd is commonly meant the concentration at which binding is half-saturated. For orientation: koff means the first-order rate constant of dissociation. Usually kon stands for a measure of how fast the partners come together. For the molecule B1, the Kd in experiment [1] was 1.2 nM; in experiment [2], 107 nM; in [3], 380 to 450 nM; in experiment [4], 32 to 37 nM; in [5] it was 160 nM; in experiment [6], 63.8 nM. Further, the koff in experiment [6] is 0.0263 s⁻¹. In [6], the kon is 412000 M⁻¹ s⁻¹.

B2: humanized antibody Hz515H7 VH1 D76N VL2 (antibody, human IgG1, kappa)
heavy: not shown
light: B1 light with S5T, A15L, K18R, V19A, G105Q, L109V
notes: IgG1/kappa; also called hz515H7VL2; hz515H7-1
For B2, the Kd in experiment [1] is 0.9 nM; in experiment [2], 95 nM; in experiment [3] it was 300 to 350 nM; in [4], 27 to 32 nM; in experiment [5], 176 nM; in experiment [7], roughly 17 nM. The values for the Kd in experiment [8], in experiment [9] and in [10] were 0.28 nM, 325 nM and 29.3 nM, respectively. The koff in experiment [8] was found to be 2e-05 s⁻¹; in experiment [9], 0.187 s⁻¹; in experiment [10], 0.0155 s⁻¹. In addition, the kon in [8] was found to be 72000 M⁻¹ s⁻¹; in experiment [9] it was 575000 M⁻¹ s⁻¹; in experiment [10] it was 529000 M⁻¹ s⁻¹.
